The results in this text go back to paper PMC3052743.

As a reminder, the stoichiometry N is a count of units in the complex or per binding partner.

This assay has as its target T1, full-length gp130 with a C-terminal EYMPME (Glu-Glu) epitope tag, P40189.
T1 chain: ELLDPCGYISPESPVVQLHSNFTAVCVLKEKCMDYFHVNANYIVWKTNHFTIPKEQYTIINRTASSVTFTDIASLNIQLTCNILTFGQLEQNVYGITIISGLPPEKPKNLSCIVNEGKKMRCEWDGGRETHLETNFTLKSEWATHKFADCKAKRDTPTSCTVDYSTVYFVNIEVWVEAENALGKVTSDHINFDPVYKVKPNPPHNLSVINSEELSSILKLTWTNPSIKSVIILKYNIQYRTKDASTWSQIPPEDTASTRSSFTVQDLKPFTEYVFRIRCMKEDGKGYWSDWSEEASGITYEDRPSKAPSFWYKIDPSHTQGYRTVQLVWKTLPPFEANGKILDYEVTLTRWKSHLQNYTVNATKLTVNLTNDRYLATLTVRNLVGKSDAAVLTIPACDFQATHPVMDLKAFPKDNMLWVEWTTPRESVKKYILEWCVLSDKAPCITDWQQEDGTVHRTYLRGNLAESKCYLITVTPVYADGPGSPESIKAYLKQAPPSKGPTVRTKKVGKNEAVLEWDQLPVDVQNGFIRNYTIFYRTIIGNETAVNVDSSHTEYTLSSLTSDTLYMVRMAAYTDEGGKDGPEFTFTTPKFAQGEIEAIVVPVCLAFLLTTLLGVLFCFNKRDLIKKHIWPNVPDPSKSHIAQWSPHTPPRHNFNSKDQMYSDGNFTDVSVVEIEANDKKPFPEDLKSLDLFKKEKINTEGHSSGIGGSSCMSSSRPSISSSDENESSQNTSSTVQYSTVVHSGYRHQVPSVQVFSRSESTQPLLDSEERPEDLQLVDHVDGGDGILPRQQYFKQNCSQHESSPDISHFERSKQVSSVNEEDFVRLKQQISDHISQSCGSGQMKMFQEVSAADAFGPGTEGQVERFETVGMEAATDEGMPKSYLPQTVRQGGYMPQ
Nature of the assay: SEC. The settings on record: remark: other sources report otherwise.

B1: full-length gp130 with a C-terminal EYMPME (Glu-Glu) epitope tag, P40189 23-918 (receptor)
chain: T1 chain
The molecule B1 had a stoichiometry N of 2.
